Experimental data from the nanobody polyreactivity screen of Harvey et al. (2022).

Assay: yeast display, Sf9 membrane polyspecificity reagent, FACS + sequencing; frameworks hold sequencing errors
Method in brief: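 Using colony PCR, genes from sorted yeast display clones were amplified, then sequenced on MiSeq at 2 × 250 and filtered by CDR length. The clones had been stained with 10% biotinylated, detergent-solubilized Sf9 membrane reagent for 1 hour at 4 °C and sorted by FACS into low and high (top ~1%) gates on anti-HA and streptavidin fluorescence. Polyreactivity labels come from the gate of origin.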

| Sequence | polyreactivity (PSR sort gate) |
| --- | --- |
| QVHLVESGGGLVQAGGSLRLSCAASGSTFQLYAMGWYRQAPGKERELVAAITSSAGRTYYADSVKGRFTISRDNAKNTVYLQMNSLKPEDTAVYYCAKDGSFTFWGQGTQVTVSS | low polyreactivity |
| QVHLVESGGGLVQAGGSLRLSCAASGSTFRSYVMGWSRQAPGKERELVAAISRGGTTYYADSVKGRFTISRDNAKNTVYLQMNSLKPEDTPVYYCAATRTTRFYTGSKMNYWGQGTQVTVSS | high polyreactivity |
| QVHLVESGGGLVQAGGSLRLSCAASGSTFTRNVMGWYRQAPGKERELVASISRSGGRTYYADSVKGRFTISRDNAKNTVYLQMNSLKPEDTAVYYCAAKSFYYLDPYDYWGQGTQVTVSS | high polyreactivity |
| QVHLVESGGGLVQAGGSLRLSCAASGSTFVNYTMGWYIQAPGKERELVAITIGAGRTYYADSVKGRFTISRDNAKNTVYLPMNSLKPEDTAVYYCAVRLYANSGRFDYWGQGTQVTVSS | low polyreactivity |
| QVHLVESGGGLVQAGGSLRLSCAASGSTFWKYVMGWYILAPGKERELVAAITSRGGSTYADSVKGRFTISRDNAKNTVYLQMNSLKTEDTAVYYCAATKFWYYGYDYWGQGTQVTVSS | low polyreactivity |
| QVHLVESGGGLVQAGGSLRLSCAASGSTFYAYTMGWYRQAPGKERELVAAISSRGGRTYYADSVKGRFTISRDNAKNTVYLQMNSLKPEDTAVYYCARTSWSGVSYDYWGQGTQVTVSS | high polyreactivity |
| QVHLVESGGGLVQAGGSLRLSCAASGSTFYPYAMGWYRQAPGKEREVVAGISRSGGTTYYADSVKGRFTISRDNANNTVYLQMNSLKPEDTAVYYCAVQIPYVYWSYDYWGQGTQVTVSS | low polyreactivity |
| QVHLVESGGGLVQAGGSLRLSCAASGSTFYYNAIGWYRQAPGKERELVARISRSGGSTYADSVKGRFTISRDKAKNTFYLQMNSLKPEDTAVYYCNADAYGTPEFTSYAVRYDYWGQGTQVTVSS | low polyreactivity |
| QVHLVESGGGLVQAGGSLRLSCAASGSTFYYYVMGWYRQAPGKETELVAAINSGGSTYYADSVKGRFTISRDNAKNTVYLQMNSLKPEDTAVYYCAKSWSYWYQYYYSGQGTQVTVSS | low polyreactivity |
| QVHLVESGGGLVQAGGSLRLSCAASGSTIDRYAMGWYRQAPGKERELVASISKRGGSTYYADSVKGRFTISRDNAKNTVYLQMNSLKPEDTAVYYCAAKWASQYDYWGQGTQVTVSS | high polyreactivity |
| QVHLVESGGGLVQAGGSLRLSCAASGSTLGYYAMGWYRQAPGKERELVASIRWDTASTYYADSVKGRFTISRDNAKNTVYLQMNSLKPEDTAVYYCNAGRPRFYRCRWYYYGYGYWGQGTQVTVSS | high polyreactivity |
| QVHLVESGGGLVQAGGSLRLSCAASGSTLSFYARGWYRQAPGKERELVAAISSSGGSTYYADSVKGRFTISRDNAKNTVYLQMNSLKPEDTAVYYCNAVRRNYGYDYWGQGTQVTVSS | high polyreactivity |
| QVHLVESGGGLVQAGGSLRLSCAASGSTVYNAMGWYRQAPGKERELVAVITDSDGSTYYADSVKGRFTISRDNAKNTVYLQMNSLKPEDTAVYYCAVTAIALYYSSGYYWGQGTQVTVSS | low polyreactivity |
| QVHLVESGGGLVQAGGSLRLSCAASGTTFGVYALGWYRQAPGKERELVAVITSRGGSTYYADSVKGRFTISRDNAKNTVYLQMNSLKPEDSAVYYCNTSTSRVPGNGEYWGQGTQVTVSS | high polyreactivity |
| QVHLVESGGGLVQAGGSLRLSCAASVRIFQIYAMGWYRQAPGKERELVATISSGTRTYYADSVKGRFTISRDNAKNTVYLQMISLKPEDTAVYYCAKTYATRHAYWAGTRYEDDYWGQGTQVTVSS | high polyreactivity |
| QVHLVESGGGLVQAGGSLRLSCAATGSIFRPYAMGWYRQAPGKERELVATITWRGGTTYYADSVKGRFTISRDNAKNTVILQMISLKPEDSAVYYCAAYVPFLTSAYDYWGHGTQVTVSS | low polyreactivity |
| QVHLVESGGGLVQAGGSLRLSCAATGSTISRYAMGWYRPAPGKERELVAAISWGGNTYYADSVKGRFTISRDNAKNTVYLQMNSLKPEDTAVYYCNRYSKLYNTMDYWGQGTQVTVSS | high polyreactivity |
| QVHLVESGGGLVQAGGSLRLSCASSGFTFRANAMGWYRPAPGKERELVAVITGSGRTYYAHSVKGRFTISRDNAKNSVYLKMNSLKPEDTAVYYCAARAAYRVSSTGYDSWGQGSQVTVSS | high polyreactivity |
| QVHLVESGGGLVQAGGSLRLSCPASGSTIRRYAMGWYRQPHGKERELVAAIRQRGTYTYYADSVKGRFTISRDTAKNTVYLQMNSLKPEDTAVYYCSGVPSLWLFNSWGQGTQVTVSS | high polyreactivity |
| QVHLVESGGGLVQAGGSLRLSCSASGRIFRVYAMGWYRQPPGKERELVAAIDQRGGRTYYADSVKGRFTISRDNAKNTVYLQMNSLKPEDTAVYYCNAEYYVSSLVESEYWGQGSQVTVSS | low polyreactivity |
| QVHLVESGGGLVQAGGSLRLSCSAYGSIFAYYAMGWYRQAPGKERELVAAIRSSGGSTYYADSVKGRFTISRDNANNTVYLQMNSLKPEVTAVYYCNVASRRIGPYVYWGQGTQVTVSS | high polyreactivity |
| QVHLVESGGGLVQAGGSLRLSFAADGSSFVRYAMGWYRQAPGKEREFVAAISRTGGSTYYADSVKGRFTLSRDNAKNTVYLQMNSLKQEVTAVFYCDARYIRGYDYWGQGTKVTVSS | high polyreactivity |

| Sequence | polyreactivity (PSR sort gate) |
| --- | --- |
| QVHLVESGGGLVQAGGSLRLSFAASGLIFFVYAMGWYRQAPGIERELVAGIRSSGGSTYYADSVKGRFTISRDNAKNTVYLQMNSLKPEDTAVYYCAARYRYGWAYRKGGDYWGQGTKVTVSS | high polyreactivity |
| QVHLVESGGGLVQAGGSLRLSLAASGRIFGGYAMGWYRQAPGKERELVAGITNTGDTYYADSVKGRFTISRDNAKNNVYLQMNSLKPEDTAVYYCNAEGDKRRDRYDYWGQGTQVTVSS | low polyreactivity |
| QVHLVESGGGLVQAGGSLRLSSAASGFICYQYAMGWYRQAPGKERELVAAISRRGGGTYYADSVKGRFTISRDNAKNTVYLEMNRLKPEDTAVYYCNTDRLGRITFGGYDYWGQGTQVTVSS | high polyreactivity |
| QVHLVESGGGLVQAGGSLRLSSAASGITFYGNAMGWYRQAPGKERELVATISSGGSTNYADSVKGRFTISRDNAKNTVYLQMHSLKPEDTAVYYCNAAPDVNRDYEGSGDYWGQGTQVTVSS | low polyreactivity |
| QVHLVESGGGLVQAGGSLRLSSAASGRIFSFNAMGWYREAPGKERELVAAISWSNGSTFYADSVKGRFTISRDNAKNTVYLQMNSLKPEETAVYYCATGFPHPKRNVNRRNYWGQGTQVTVSS | high polyreactivity |
| QVHLVESGGGLVQAGGSLRLSSAASGRTLSRYAMGWYRQAPGKERELGASISWSGGRTYYADSVKGRFTISRDNAKNTVYLQMNSLKPEDTAVYYCAAVYVTAPFDYWGQGTQVTVSS | low polyreactivity |
| QVHLVESGGGLVQAGGSLRLSSAASGSIFGANAMGWYRQAPGKERELVAAITSGSGTNYADSVKGRFTISRDNSKNTVYLQMNSLKPEDTAVYSCAARHPYPIYDYWGQGTQVTVSS | low polyreactivity |
| QVHLVESGGGLVQAGGSLRLSSAATGSIIYWYDMGWYRQAPGKERELVAAITNDGDSTYYADSVKGRFTISRDNAKNTVYLQMNSLKPEDTAVYYCAADVLFYYEYGSWGQGTQVTVSS | low polyreactivity |
| QVHLVESGGGLVQAGGSLRLSSADSGRIFTTYVMGWYRQAPGQESELVAAISARGSTYYADSVKGRFTISRDNAKNTVYLQMNSLKPEDNAVYYCAAGHRLPVYYVYPRATYNYWRQGTQVTVSS | low polyreactivity |
| QVHLVESGGGLVQAGGSLRLSSADSGRTFAYNAMRWYRPAPGKERELVAAITWSGDSTYYADSVKGRFTISRDNAKNTVYFQMNSLKPEDTEVYYCAADYFGGPSYEFDYWGQGTQVTVSS | low polyreactivity |
| QVHLVESGGGLVQAGGSLRLTCAASGFTFSDNAMGWYRQAPGKERELVAAISRSGGRTYYADSVKGRFTISRDNAKKTVYLQMNSLKPEDTAVYYCAAYQYGMDYWGQGTQVTVSS | high polyreactivity |
| QVHLVESGGGLVQAGGSLRLTCAASGSTFGTYAMGWYRPAPGKERELVATIAIGGITYYADSVKGRFTISRDNAKYTVYLQMNSLKPEDTAVDYCAKDVTAPTSRSDPSGDDYWGQGTQVTVSS | low polyreactivity |
| QVHLVESGGGLVQAGGSLRVSCAASGSIFPYAMGCYRQAPGKEREFVAAITSGVRTNYADSVKGRFTISRDNAKNNVYLQINSLKPEDTAVYYCAARYFPHYYSKYDYWGPGTQVTVSS | low polyreactivity |
| QVHLVESGGGLVQAGGSLSFSCAASGSNFTFNTMVWYRQAPGKEREKVATISSGGRTYYADSVKGRFTISRDNAKNTVYLQMNSLKPEDTPVFYCNKGYYGYTYVEYNYWGQGTPVTVSS | low polyreactivity |
| QVHLVESGGGLVQAGRSLPLSCAASGRIFIYNAMGWYRQAPGKERELVAAINRSGVSTHYADSVKGRFTISRDNAKNTVYLQMNSLKPEDTAVYYCARTVYGARSYDYWGQGTQVTVSS | low polyreactivity |
| QVHLVESGGGLVQAGRSLRLSCAASGSIFYVYAMGWYRQAPGKETQLVATISTGGSTYYADSVKGRFTISRDNAKNTVYLQMNSLKPEDTAVYYCNAQFTPRYWGGYDSWGQGNQVTVSS | low polyreactivity |
| QVHLVESGGGLVQAGVSLRLSCAASGSTFGHNAMVWYRQAPGKERELVAAISSIGGSTNYADSVKGRFTISRDNAKNTVYFQMNSLKPEDTAVYYCNAGPGLRYVSPYDYWGQGTQVTVSS | low polyreactivity |
| QVHLVESGGGLVQARGSLRLSCAASGRIFRYYVMGWYRQAPGIERELVAAITSGTSTNYADSVKGRFTISRDNAKNTVYLQMTSLKPEDTAVYYCAVRSPRGGRTRFNSNYWGQGTQVTVSS | high polyreactivity |
| QVHLVESGGGLVQARGSLRLSCAAYGRIFGRNAMGWYRQAPGKERELVAVITFSGGDTFYADSVKGRFTISRDNAKNTVYLQMNSLKPEDTAVYYCAKSQGFETYRNVSIFGYWGQGTQVTVSS | low polyreactivity |
| QVHLVESGGSLVQAGGSLRLSCAASGFIFSWYAMGWYRQAPGKERELLAAISHEGGYTYYADSVKGRFTISRDNSKNNVYLQMYSLKPEDTAVYYCAPAFRAAGRSVRYYWGHGTQVTVSS | high polyreactivity |
| QVHLVESGGVIVQAGGILRLSCAASGNIFTYYVMGWYRQAPGKERELVAAISRRGGSTYYADSVKGRFTISRDIAKNTVYLQMNSLKPEDTAVYYCAKKYPRDMDYWGQVTQVTVSS | high polyreactivity |
